Molecular target: EBOV GP on infectious virus (Ebola virus , Mayinga) (UniProt Q05320)
Assay: cell-based or functional assay

Chain of UniProt Q05320 (Q05320 33-676): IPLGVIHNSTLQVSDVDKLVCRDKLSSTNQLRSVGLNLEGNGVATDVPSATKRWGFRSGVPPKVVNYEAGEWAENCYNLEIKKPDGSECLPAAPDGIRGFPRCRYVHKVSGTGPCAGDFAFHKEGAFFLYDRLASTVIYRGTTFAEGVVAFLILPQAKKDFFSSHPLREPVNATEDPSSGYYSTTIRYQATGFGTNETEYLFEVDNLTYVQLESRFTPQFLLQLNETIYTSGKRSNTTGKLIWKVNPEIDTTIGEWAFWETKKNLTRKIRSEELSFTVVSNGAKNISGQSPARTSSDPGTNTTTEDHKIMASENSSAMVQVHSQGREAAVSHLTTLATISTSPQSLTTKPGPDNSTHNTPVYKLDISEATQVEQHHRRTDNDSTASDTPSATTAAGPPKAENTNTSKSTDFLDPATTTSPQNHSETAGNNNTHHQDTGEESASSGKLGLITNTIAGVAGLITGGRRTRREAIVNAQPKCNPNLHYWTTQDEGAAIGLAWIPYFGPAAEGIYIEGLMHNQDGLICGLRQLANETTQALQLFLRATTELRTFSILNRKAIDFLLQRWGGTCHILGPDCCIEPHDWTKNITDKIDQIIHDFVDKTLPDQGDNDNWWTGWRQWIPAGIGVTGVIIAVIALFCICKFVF

B1: rEBOV-442 IgG1 (antibody, V domains shown)
VH: EVQLVESGGGLVKPGGSLRLSCTGSGGTGFTFKYAGMSWVRQAPGKGPEWIGRIKSRIDGGTTDYAAPVKDRFIVSRDDSRNTLYLQMNSLKTEDTAVYYCATGSGKGPSASFGESYYYYDFINVWGKGTTVTVSS
VL: ESVLTQSPGTLSLSPGERATLSCRASQSISRKYLAWYQQKPGQAPRLLIYGSSSRATGIPDRFSGSGSGTDFTLTISRLEPEDFAVYYCHQYESSPWTFGQGTKVEIK
- half maximal inhibitory concentration (IC50), neutralization of VSV/EBOV GP: < 1.5 µg/mL

B2: rEBOV-515 (recombinant wild-type IgG1) (antibody, V domains shown)
VH: QVQLHESGPGLVKPSQTLSLTCTVSGGSINSAGYYWTWIRQHPGKGLEWIGYIDYTGRTYYNPSLESRVIISIDTSKNHFSLRLTSVSAADTAVYYCARESSWVSELGRDNWGQGTLVTVSS
VL: EIVMTQSPATLPVSPGEGATLSCRASQSVFTNLAWYQQKPGQAPRLLIYDASTRATGIPARFSGSGSGTEFTLTISSLQSEDFAVYYCQQYNNWPRTYGQGTRVEVK
- half maximal inhibitory concentration (IC50), neutralization of VSV/EBOV GP: < 1.5 µg/mL
